Three molecules from patent publication US20260062488A1 can be followed below.

Test [1] has as its target human α4β7 integrin (human) (UniProt P13612). Description: blockade of HuT78 adhesion to coated VCAM-1 hFc, experiment 1.
For test [2] the target is unchanged. The experiment in a line: blockade of HuT78 adhesion to coated VCAM-1 hFc, experiment 2.
Test [3] shares this target. The experiment in a line: blockade of HuT78 adhesion to coated VCAM-1 hFc, experiment 3.
Test [4] shares this target. The experiment in a line: blockade of HuT78 adhesion to coated VCAM-1 hFc, average N = 3.
Test [5] has the same target. Description: FACS titration on BaF3-hα4β7.
Test [6] concerns the target cynomolgus αEβ7 integrin (cynomolgus monkey). The experiment in a line: FACS, 1 µg/ml, BaF3-cαEβ7 cells.
The target in test [7] is human α4β7 integrin (human) (UniProt P13612). Description: FACS, 1 µg/ml, BaF3-hα4β7 cells.
Test [8] has as its target human αEβ7 integrin (human) (UniProt P38570). The experiment in a line: FACS, 1 µg/ml, BaF3-hαEβ7 cells.
Test [9] addresses cynomolgus α4β7 integrin (cynomolgus monkey). The experiment in a line: FACS, 1 µg/ml, CHOK1-cα4β7 cells.
The target in test [10] is human α4β1 integrin (human) (UniProt P05556). The experiment in a line: FACS, 1 µg/ml, CHOK1-hα4β1 cells.
The target in test [11] is mouse α4β7 integrin (mouse) (UniProt Q00651). Description: FACS, 1 µg/ml, CHOK1-mα4β7 cells.
mouse α4β7 integrin (mouse), sequence (Q00651 41-1039, chain 1 of 2): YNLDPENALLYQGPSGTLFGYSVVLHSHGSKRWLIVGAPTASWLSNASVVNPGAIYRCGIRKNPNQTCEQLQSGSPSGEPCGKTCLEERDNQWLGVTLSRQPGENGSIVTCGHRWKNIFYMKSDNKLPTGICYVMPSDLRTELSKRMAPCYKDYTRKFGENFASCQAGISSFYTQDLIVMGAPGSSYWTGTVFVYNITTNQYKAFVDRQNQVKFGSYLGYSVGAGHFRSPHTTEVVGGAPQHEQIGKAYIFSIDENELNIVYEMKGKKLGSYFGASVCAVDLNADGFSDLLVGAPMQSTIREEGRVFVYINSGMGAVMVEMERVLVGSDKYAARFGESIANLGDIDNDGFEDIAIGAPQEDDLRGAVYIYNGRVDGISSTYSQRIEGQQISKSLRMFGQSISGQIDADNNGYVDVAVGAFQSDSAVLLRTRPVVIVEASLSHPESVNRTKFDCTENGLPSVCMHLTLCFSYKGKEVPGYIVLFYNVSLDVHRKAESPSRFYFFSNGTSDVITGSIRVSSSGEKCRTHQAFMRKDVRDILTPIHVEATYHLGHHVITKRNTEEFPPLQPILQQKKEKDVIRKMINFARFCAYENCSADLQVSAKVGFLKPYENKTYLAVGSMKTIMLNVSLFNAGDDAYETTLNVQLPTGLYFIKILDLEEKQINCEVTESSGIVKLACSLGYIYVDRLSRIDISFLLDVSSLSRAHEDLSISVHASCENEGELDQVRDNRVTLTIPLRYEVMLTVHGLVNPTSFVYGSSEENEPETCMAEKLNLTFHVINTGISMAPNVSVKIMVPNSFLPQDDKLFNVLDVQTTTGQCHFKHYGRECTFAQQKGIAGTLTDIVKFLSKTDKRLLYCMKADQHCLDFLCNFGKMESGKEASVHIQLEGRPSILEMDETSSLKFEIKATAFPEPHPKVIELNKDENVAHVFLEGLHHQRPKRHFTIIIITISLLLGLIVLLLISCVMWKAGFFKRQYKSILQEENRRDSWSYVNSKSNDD
mouse α4β7 integrin (mouse), sequence (P26011 20-806, chain 2 of 2, further chain): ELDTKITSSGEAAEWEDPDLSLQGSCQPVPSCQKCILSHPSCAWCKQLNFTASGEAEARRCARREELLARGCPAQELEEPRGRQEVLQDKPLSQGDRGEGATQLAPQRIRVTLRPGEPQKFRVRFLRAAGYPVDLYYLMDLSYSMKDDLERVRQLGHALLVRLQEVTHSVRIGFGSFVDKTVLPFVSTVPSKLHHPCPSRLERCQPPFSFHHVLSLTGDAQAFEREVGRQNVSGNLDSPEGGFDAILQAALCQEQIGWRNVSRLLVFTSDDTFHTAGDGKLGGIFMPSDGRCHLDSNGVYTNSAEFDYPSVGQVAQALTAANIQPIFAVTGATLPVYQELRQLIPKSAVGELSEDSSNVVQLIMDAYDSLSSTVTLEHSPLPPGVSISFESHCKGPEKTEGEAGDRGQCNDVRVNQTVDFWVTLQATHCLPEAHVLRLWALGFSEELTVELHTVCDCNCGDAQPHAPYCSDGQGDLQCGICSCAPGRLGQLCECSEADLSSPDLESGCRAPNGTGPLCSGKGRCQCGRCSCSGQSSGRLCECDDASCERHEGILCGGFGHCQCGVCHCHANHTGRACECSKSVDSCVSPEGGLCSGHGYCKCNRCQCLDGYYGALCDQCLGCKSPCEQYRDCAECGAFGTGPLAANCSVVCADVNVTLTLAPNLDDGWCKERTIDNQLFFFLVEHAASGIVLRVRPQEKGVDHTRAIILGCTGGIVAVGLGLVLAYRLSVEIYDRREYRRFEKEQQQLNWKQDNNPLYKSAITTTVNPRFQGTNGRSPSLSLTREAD
The target of test [12] is human α4β7 integrin (human) (UniProt P13612). The experiment in a line: FACS, primary human CD4+ memory T cells.
The target is the same in test [13]. The experiment in a line: blockade of HuT78 cell adhesion to MAdCAM-1.
The target of test [14] is cynomolgus α4β7 integrin (cynomolgus monkey). The experiment in a line: blockade of CHOK1/cα4β7 adhesion to MAdCAM-1.
The target is the same in test [15]. Description: blockade of CHOK1-cα4β7 cell adhesion to MAdCAM-1.
Test [16] deals with human α4β7 integrin (human) (UniProt P13612). The experiment in a line: competitive FACS, 50x excess of non-labelled competitor Ab-m1.
For test [17] the target is unchanged. Description: competitive FACS, 50x excess of non-labelled competitor Ab-Abri.
The target is the same in test [18]. Description: competitive FACS, 50x excess of non-labelled competitor Ab-Etro.
Test [19] has the same target. Description: competitive FACS, 50x excess of non-labelled competitor Ab-Vedo.
Test [20] has the same target. The experiment in a line: row IC50 (pM) HuT78 of the binning table (assay not explained, presumably adhesion to MAdCAM-1).

B1: Ab-Nata (antibody, INN chains, looked up, V domains shown)
VH: QVQLVQSGAEVKKPGASVKVSCKASGFNIKDTYIHWVRQAPGQRLEWMGRIDPANGYTKYDPKFQGRVTITADTSASTAYMELSSLRSEDTAVYYCAREGYYGNYGVYAMDYWGQGTLVTVSS
VL: DIQMTQSPSSLSASVGDRVTITCKTSQDINKYMAWYQQTPGKAPRLLIHYTSALQPGIPSRFSGSGSGRDYTFTISSLQPEDIATYYCLQYDNLWTFGQGTKVEIKR
On to B1, for which the concentration for half-maximal inhibition (IC50) in [1] is 0.038 nM; in test [2] it was 0.054 nM; in [3] it was 0.077 nM; in [4] it was 0.056 nM.

B2: Ab-Abri (antibody, INN chains, looked up, V domains shown)
VH: QVQLVQSGAEVKKPGASVKVSCKVSGYTLSDLSIHWVRQAPGKGLEWMGGFDPQDGETIYAQKFQGRVTMTEDTSTDTAYMELSSLKSEDTAVYYCATGSSSSWFDPWGQGTLVTVSS
VL: DIQMTQSPSSVSASVGDRVTITCRASQGISSWLAWYQQKPGKAPKLLIYGASNLESGVPSRFSGSGSGTDFTLTISSLQPEDFANYYCQQANSFPWTFGQGTKVEIK
modifications: IgG2 Alexa488 conjugate
Take B2: the EC50 in test [5] is 0.679 nM; in test [12], 4.9 pM. This molecule yielded a Max MFI in test [5] of 775 MFI. Besides, the FACS MFI turned out to be 68.3 MFI in [6]; 624 MFI in test [7]; 9.81 MFI in [8]; 89.8 MFI in [9]; 4.25 MFI in test [10]; 2.87 MFI in test [11]. For the same molecule, the IC50 worked out at 0.0129 nM in test [13], 0.0509 nM in test [14], 0.0994 nM in test [15] and 0.0129 nM in [20]. Further, the Max inhibition (%) in test [13] came to 103%; in test [15], 95.9%. In addition, the percentage of binding inhibition came out at 73% in test [16], 89% in [17], 80% in [18] and 88% in test [19].

B3: Ab-Etro (antibody, INN chains, looked up, V domains shown)
VH: EVQLVESGGGLVQPGGSLRLSCAASGFFITNNYWGWVRQAPGKGLEWVGYISYSGSTSYNPSLKSRFTISRDTSKNTFYLQMNSLRAEDTAVYYCARTGSSGYFDFWGQGTLVTVSS
VL: DIQMTQSPSSLSASVGDRVTITCRASESVDDLLHWYQQKPGKAPKLLIKYASQSISGVPSRFSGSGSGTDFTLTISSLQPEDFATYYCQQGNSLPNTFGQGTKVEIK
modifications: IgG1 Alexa488 conjugate
B3: the figures for the concentration giving a half-maximal response (EC50) in test [5] and in test [12] were 0.705 nM and 5.4 pM, respectively. Besides, the Max MFI in [5] was determined as 951 MFI. The FACS MFI was found to be 247 MFI in test [6]; 440 MFI in test [7]; 73.2 MFI in [8]; 97.2 MFI in test [9]; 4.53 MFI in [10]; 92.2 MFI in test [11]. The half-maximal inhibitory concentration (IC50) in [13] is 0.0178 nM; in test [14], 0.0499 nM; in test [15] it was 0.241 nM; in [20], 0.0178 nM. The Max inhibition (%) is 104% in test [13] and 91.5% in [15]. Also, the percentage of binding inhibition in test [16] was -1%; in test [17], 60%; in test [18], 93%; in test [19], 6%.
